In the Immune Epitope Database (IEDB) one finds IC50 and Kd data, which are given here for 43 sequences.

The IC50 is the midpoint of a concentration-inhibition curve. Usually Kd stands for the constant that tells how readily two partners part at equilibrium.

For test [1], the target named is HLA-A*02:01. The test is described as follows: IEDB peptide-MHC binding, purified MHC/competitive/fluorescence; ≥ and ≤ were set here for values at or beyond the usual limits of such assays.
The next test has as its target HLA-B*15:01. As to the kind of experiment: IEDB peptide-MHC binding, purified MHC/direct/fluorescence; filed as Kd, often an IC50 or EC50 that approximates it; ≥ and ≤ were set here for values at or beyond the usual limits of such assays.
Test [2] concerns the target HLA-B*07:02. The test is described as follows: IEDB peptide-MHC binding, purified MHC/competitive/radioactivity; filed as Kd, often an IC50 or EC50 that approximates it; ≥ and ≤ were set here for values at or beyond the usual limits of such assays.
The target of a further test is HLA-A*11:01. As to the kind of experiment: IEDB peptide-MHC binding, purified MHC/direct/fluorescence; filed as Kd, often an IC50 or EC50 that approximates it; ≥ and ≤ were set here for values at or beyond the usual limits of such assays.
A further test concerns the target HLA-A*03:01. The description is as above.
Test [3] addresses HLA-A*01:01. The description is as above.
Another test concerns the target HLA-A*69:01. Described as above.
The target of test [4] is HLA-A*02:01. The test is described as above.
Test [5] deals with HLA-A*01:01. As to the kind of experiment: IEDB peptide-MHC binding, purified MHC/competitive/radioactivity; filed as Kd, often an IC50 or EC50 that approximates it; ≥ and ≤ were set here for values at or beyond the usual limits of such assays. To be noted: source organism: Homo sapiens.
Another test has as its target HLA-B*51:01. The test is described as above.
The target of a further test is HLA-B*53:01. The test is described as above.
For another test, the target named is HLA-B*35:01. The test is described as above.
Test [6] addresses HLA-B*07:02. As to the kind of experiment: IEDB peptide-MHC binding, purified MHC/direct/fluorescence; filed as Kd, often an IC50 or EC50 that approximates it; ≥ and ≤ were set here for values at or beyond the usual limits of such assays.
For the next test, the target named is HLA-B*40:01. The description is as above. To be noted: source organism: Corynebacterium diphtheriae.
The mark [7] stands for this setting: source organism: Dengue virus 3 Martinique/1243/1999.
The mark [8] stands for this setting: source organism: Vaccinia virus Copenhagen.
The mark [9] stands for this setting: source organism: Brucella abortus 2308.
[10] abbreviates: source organism: Dengue virus 2 Jamaica/1409/1983.
The mark [11] stands for this setting: source organism: Dengue virus 4 Philippines/H241/1956.
[12] abbreviates: source organism: Bacillus cereus.
[13] abbreviates: source organism: Zaire ebolavirus.
Where [14] appears, read: source organism: Dengue virus 1 Brazil/97-11/1997.
The mark [15] stands for this setting: source organism: Escherichia coli.
The mark [16] stands for this setting: source organism: Rickettsia sibirica.
The mark [17] stands for this setting: source organism: Francisella tularensis subsp. holarctica LVS.
Where [18] appears, read: source organism: Dengue virus 4 Dominica/814669/1981.
[19] abbreviates: source organism: Entamoeba histolytica HM-1:IMSS.
Where [20] appears, read: source organism: Vibrio cholerae.

The sequence AFIHIPGDT had an IC50 with HLA-A*02:01 [1] (source organism: Variola virus) of 24800 nM.

In the case of ALSTGAGAY, the Kd in the test with HLA-B*15:01 (source organism: Mycobacterium tuberculosis F11) was determined as 436 nM.

CIDILRSLE displayed an IC50 with HLA-A*02:01 [1] (source organism: Vaccinia virus) of 51000 nM.

Consider CPTQGEAVL, for which the dissociation constant (Kd) with HLA-B*07:02 [2] (setting [7]) came to 53.7 nM.

Regarding CSDDGFWSK, the equilibrium dissociation constant (Kd) with HLA-A*11:01 (source organism: Homo sapiens) is 138 nM; with HLA-A*03:01 (source organism: Homo sapiens) it was 11000 nM; in the test with HLA-A*01:01 [3] (source organism: Homo sapiens), 423 nM.

As to CSSISIKLT, the IC50 in the test with HLA-A*02:01 [1] (setting [8]) was ≥ 729000 nM.

For DLNKVIQFL, the equilibrium dissociation constant (Kd) in the test with HLA-A*69:01 (source organism: Haemophilus influenzae) was determined as 352 nM.

Take DLSLGNQEL: the equilibrium dissociation constant (Kd) in the test with HLA-A*02:01 [4] (setting [9]) is ≥ 10000 nM; with HLA-A*69:01 (setting [9]), ≥ 20000 nM.

As to DSLSSQMTS, the IC50 with HLA-A*02:01 [1] (setting [8]) is ≥ 240000 nM.

FLGGNEVGKTY: in the test with HLA-A*01:01 [5], the Kd was found to be 198 nM.

FLPKAAYAL returned an equilibrium dissociation constant (Kd) in the test with HLA-A*02:01 [4] (source organism: Mammarenavirus juninense) of 2.8 nM.

Turning to FPQSNAPIMD, the Kd is 4160 nM with HLA-B*51:01 (setting [10]) and 113 nM in the test with HLA-B*53:01 (setting [10]).

Regarding FPQSNSPIED, the values for the equilibrium dissociation constant (Kd) with HLA-B*51:01 (setting [11]), with HLA-B*35:01 (setting [11]) and in the test with HLA-B*53:01 (setting [11]) were ≥ 37500 nM, 630 nM and 1830 nM, respectively.

Take FPYSIPATL: the dissociation constant (Kd) with HLA-B*51:01 (setting [7]) turned out to be 89 nM; with HLA-B*35:01 (setting [7]) it was 1.99 nM; with HLA-B*53:01 (setting [7]) it was 2.15 nM.

Regarding GIYCTVPFI, the values for the dissociation constant Kd in the test with HLA-A*02:01 [4] (setting [12]) and with HLA-A*69:01 (setting [12]) were 111 nM and 388 nM, respectively.

In turn, GLRAIKSVL came in with a dissociation constant Kd with HLA-A*02:01 [4] (source organism: Homo sapiens) of 5660 nM.

As for GMNAPDDLV, the IC50 with HLA-A*02:01 [1] (setting [13]) was found to be 6300 nM.

The sequence GPRQWRWPL returned a Kd with HLA-B*07:02 [6] (source organism: Mycobacterium tuberculosis str. Haarlem) of 14.2 nM.

Turning to GTHPTTTYK, in the test with HLA-A*03:01 (source organism: Mycobacterium tuberculosis variant bovis), the Kd was determined as 780 nM.

The sequence GTTFAEGVV gave an IC50 with HLA-A*02:01 [1] (setting [13]) of 31100 nM.

Turning to IPERSWNSGY, the equilibrium dissociation constant (Kd) with HLA-B*35:01 (setting [14]) was found to be 155 nM.

IPKIYGGPIS: in the test with HLA-B*07:02 [2] (source organism: Dengue virus 1 Singapore/S275/1990), the dissociation constant Kd is 508 nM.

For ISEPMFHQG, the Kd with HLA-A*01:01 [3] (setting [15]) was 7130 nM; with HLA-A*69:01 (setting [15]) it was 1690 nM.

For the sequence KLYFWIPWS, the dissociation constant (Kd) with HLA-A*02:01 [4] (setting [16]) was 197 nM; with HLA-A*69:01 (setting [16]) it was ≥ 20000 nM.

As to KLYGLSQGY, the Kd is 210 nM in the test with HLA-A*11:01 (setting [17]) and 4.7 nM in the test with HLA-A*03:01 (setting [17]).

Consider LATGPILTLW, for which the dissociation constant Kd with HLA-B*53:01 (setting [18]) was 15.1 nM.

LEEEGVTPL returned an equilibrium dissociation constant (Kd) with HLA-B*40:01 of 43.4 nM.

Take LEKVQRQIQ: the IC50 with HLA-A*02:01 [1] (setting [13]) was ≥ 446000 nM.

For LGVATAHGS, the IC50 in the test with HLA-A*02:01 [1] (setting [13]) was ≥ 277000 nM.

Turning to LIGLSSRATW, in the test with HLA-B*53:01 (setting [11]), the Kd came to 378 nM.

With LLFEVEQEI, in the test with HLA-A*02:01 [4] (source organism: Influenza A virus (A/Saudi Arabia/7971/2000(H1N1))), the equilibrium dissociation constant (Kd) was found to be 15.7 nM.

As for LPIRYQTTA, the Kd in the test with HLA-B*51:01 (setting [7]) is 15900 nM.

LPLPWTAGAD: the Kd with HLA-B*51:01 (setting [18]) was ≥ 69600 nM; with HLA-B*35:01 (setting [18]) it was 8060 nM.

For LPTYLSSRAK, the figures for the Kd in the test with HLA-B*51:01 (setting [11]) and with HLA-B*35:01 (setting [11]) were ≥ 49800 nM and 15100 nM, respectively.

LPVLLGSFGC: the Kd was ≥ 43500 nM with HLA-B*51:01 (setting [14]), 5940 nM with HLA-B*35:01 (setting [14]) and 117 nM with HLA-B*53:01 (setting [14]).

For the sequence LPVWLSYKVA, in the test with HLA-B*35:01 (setting [14]), the dissociation constant Kd amounted to 864 nM.

Take MAICSAVPT: the Kd with HLA-B*35:01 (setting [11]) turned out to be 543 nM.

Regarding NISLPLYTV, the results for the Kd with HLA-A*02:01 [4] (setting [19]) and with HLA-A*69:01 (setting [19]) were 47.5 nM and 8.5 nM, respectively.

In the case of NPTTLIASL, the Kd with HLA-B*07:02 [2] (setting [11]) was determined as 210 nM.

For the sequence NPWMEDKTH, in the test with HLA-B*35:01 (setting [14]), the Kd came to 2300 nM.

As for QLANETTQA, the IC50 in the test with HLA-A*02:01 [1] (source organism: Sudan ebolavirus) stood at 25900 nM.

As to QLNETIYTS, the 50% inhibitory concentration (IC50) in the test with HLA-A*02:01 [1] (setting [13]) was determined as 2800 nM.

On to QLQCHQIAI, for which the Kd was determined as 13200 nM with HLA-A*03:01 (setting [20]); 7260 nM in the test with HLA-B*15:01 (setting [20]); 92 nM in the test with HLA-A*02:01 [4] (setting [20]); 5310 nM with HLA-A*69:01 (setting [20]); 6710 nM with HLA-B*07:02 [6] (setting [20]).
